The nature of data set [1]: Deamidation products formed on storage at 25° C., pH 3, DISC PAGE analysis. The class given is physicochemical. The note with it: 0.24 mM analog, 3 Zn++ per hexamer.
Procedure: Deamidation products formed per month after storage 25 at 25° C. and a pH value of 3.
The compositions tested were as follows: 0.24 mM insulin analog, 0.3% (w/v) m-cresol, 1.6% (w/v) glycerol, 3 Zn^++ per insulin hexamer and 0.01 M sodium acetate to obtain a pH value of 3. The determinations were made using DISC PAGE analysis.
Data set [2] is described as follows: Di- and polymerization products formed on storage at 25 C, HPSEC. Conditions: 3 Zn++ per hexamer. In kind it is physicochemical.
Procedure: The compositions tested were as follows: 0.24 mM insulin analog, 0.3% /w/v) m-cresol, 1.6% (w/v) glycerol, 0.01 M sodium acetate and 3 Zn^++ per insulin hexamer. The determination was made using HPSEC (high performance size exclusion chromatography).
A reference insulin having Asn^A21 is included for comparison.
The conditions of data set [3]: from Diabetes Care, Vol. 6/Supplement 1 (1983), 4; cited from earlier work.

Here are results for two substances from patent US5008241A, “Novel insulin peptides” (Novo Nordisk A/S, priority 1985, dated 1991).

Regarding Arg^B27 Thr^B30 --NH2 human insulin, the “Deamidation products formed per month” value in data set [1] is “approx. 10%”. The “Di- and polymerization products formed per month” value was 0.15% in data set [2] (pH of formulation 3.0, 0.24 mM analog); 0.62% in data set [2] (pH of formulation 4.0, 0.24 mM analog); 1.4% in data set [2] (pH of formulation 5.0, 0.24 mM analog).

With “monocomponent procine insulin: monocomponent porcine insulin”, in data set [3], the established potency is recorded as 28.5 U/mg dry substance.
